Test system: Plant OsNAM12.1 (SUMOylated, from rice root protein extract; genotype of the sample not stated)

Which “deSUMOylation by protease treatment, immunoblot” value does the source give for deSUMOylating protease Ulp1 here?
Its value is “putative di-SUMOylated (-53 kD; 29+12+12) rather than the putative mono-SUMOylated (-41 kD; 29+12) OsNAM12.1 was preferentially deSUMOylated”.

Reference: patent US20160251675
